Reference: US20230165970A1, “COMPOSITIONS AND METHODS FOR THE TREATMENT OF BACTERIAL INFECTIONS” (priority 2017, published 2023)

Assays:
Experiment in all cases: MIC assay (broth microdilution, RPMI + 5% LB)
Type in all cases: cell-based
[1] = system: Escherichia coli BW25113 + pUC18-mcr-1; settings: assay media RPMI A
Description: An mcr-1 expression plasmid was constructed (GenScript; Piscataway, N.J.) using the pUC18 high copy number plasmid (Yanisch-Perron, et al., 1985). A 1649-bp fragment was synthesized containing, in order from 5′ to 3′: EcoR1 restriction site (5′-GAATTC-3), a ribosomal binding site (5′-AGGAGG-3′), a 5-bp native start codon upstream sequence (5′-TTCTC-3′) from the mcr-1-bearing plasmid pHNSHP45 (Liu, Y Y, et al., 2015; GenBank Accession #KP347127), the 1626-bp mcr-1 open reading frame with stop codon (“orf00073” of GenBank Accession #KP347127), and finally an Xba1 restriction site sequence (5′-TCTAGA-3′). […] The pUC18-mcr-1 plasmid was transformed into chemically-competent E. coli BW25113 (Coli Genetic Stock Center #7636) as described previously (Chung, et al., PNAS. 1989), recovered for 1 h shaking at 37° C. in Super Optimal broth with Catabolite repression (SOC) media and then aliquots were plated on Luria-Bertani (LB) media containing 100 μg/mL of carbenicillin. Putative transformant colonies were then verified in MIC assays.
(§1) Bacterial strains were stored as glycerol stocks at −80° C. prior to culturing on cation-adjusted Mueller-Hinton agar (MHA; BD cat. no. 211438) at 37° C. Antibacterial activity was assessed against a panel consisting of Escherichia coli, Acinetobacter baumannii, Pseudomonas aeruginosa, and Klebsiella pneumoniae strains (see Table 2).
Briefly, stock solutions of all antibacterial agents were prepared fresh in appropriate solvents (i.e. PBS, pH 7.4. DMSO, DI, etc.). Stock concentrations were made at 50× the highest final assay concentration and serially diluted 2-fold, 8 or 12 times in a 96-well PCR plate (VWR cat. no. 83007-374). Bacterial cell suspensions generated from MHA plate cultures were prepared in 0.85% saline and adjusted to ˜0.1 OD600 nm. […] Later, conjugates 16 and 17, and 20-25 were evaluated in RPMI 1640 medium (+) L-glutamine, (+) sodium bicarbonate, pH 7.4 (“RPMI B”; Gibco, cat. no. 11875-085) as has been described as a more physiologically-relevant media for susceptibility testing of antibacterial compounds. […]

[2] = system: Escherichia coli BW25113 4X-12 (COL-R; PmrB-Leu10Pro); settings: assay media RPMI A
Description: as §1
(§2) Briefly, stock solutions of all antibacterial agents were prepared fresh in appropriate solvents (i.e. PBS, pH 7.4. DMSO, DI, etc.). Stock concentrations were made at 50× the highest final assay concentration and serially diluted 2-fold, 8 or 12 times in a 96-well PCR plate (VWR cat. no. 83007-374). Bacterial cell suspensions generated from MHA plate cultures were prepared in 0.85% saline and adjusted to ˜0.1 OD600 nm. Next, cell suspensions were diluted 1:200 in RPMI containing 5% Luria Broth (LB) to improve bacterial growth (BD Difco, cat. no. 244620) to a concentration of ˜5×10^5 CFU (colony-forming units)/mL. […] Later, conjugates 16 and 17, and 20-25 were evaluated in RPMI 1640 medium (+) L-glutamine, (+) sodium bicarbonate, pH 7.4 (“RPMI B”; Gibco, cat. no. 11875-085) as has been described as a more physiologically-relevant media for susceptibility testing of antibacterial compounds. Dorschner R A et al., The mammalian ionic environment dictates microbial susceptibility to antimicrobial defense peptides. FASEB J. 20(1):35-42 […]. Ninety-eight microliters of each cell suspension in MHB were added to test wells in a 96-well assay plate (Costar cat. no. 3370). A Beckman Multimek 96 liquid handling robot was used to dispense 2 μL of each 50× stock compound into the plate containing 98 μL of each strain in MHB (2% final solvent concentration). E. coli strains BW25113 and ATCC 25922 were run in the presence and absence of 50% heat-inactivated fetal bovine serum (FBS; Sigma, cat. no. F4135-100 mL). Plates were mixed by shaking then incubated at 37° C. overnight (16-20 h).

[3] = system: Pseudomonas aeruginosa PAO1; settings: assay media RPMI A
Description: as §1, §2

[4] = system: Acinetobacter baumannii AB5075; settings: assay media RPMI A
Description: as §1
(§3) Briefly, stock solutions of all antibacterial agents were prepared fresh in appropriate solvents (i.e. PBS, pH 7.4. DMSO, DI, etc.). Stock concentrations were made at 50× the highest final assay concentration and serially diluted 2-fold, 8 or 12 times in a 96-well PCR plate (VWR cat. no. 83007-374). Bacterial cell suspensions generated from MHA plate cultures were prepared in 0.85% saline and adjusted to ˜0.1 OD600 nm. […] Dorschner R A et al., The mammalian ionic environment dictates microbial susceptibility to antimicrobial defense peptides. FASEB J. 20(1):35-42 (2017). Ninety-eight microliters of each cell suspension in MHB were added to test wells in a 96-well assay plate (Costar cat. no. 3370). A Beckman Multimek 96 liquid handling robot was used to dispense 2 μL of each 50× stock compound into the plate containing 98 μL of each strain in MHB (2% final solvent concentration). E. coli strains BW25113 and ATCC 25922 were run in the presence and absence of 50% heat-inactivated fetal bovine serum (FBS; Sigma, cat. no. F4135-100 mL). Plates were mixed by shaking then incubated at 37° C. overnight (16-20 h).

[5] = system: Acinetobacter baumannii ATCC 19606; settings: assay media RPMI A
Description: as §1, §3

[6] = system: Escherichia coli ATCC BAA-2469; settings: assay media RPMI A
Description: as §1, §3

[7] = system: Escherichia coli BW25113; settings: assay media RPMI A; for MIC Ec BW + FBS: 50% heat-inactivated FBS
[8] = system: Escherichia coli ATCC 25922; settings: assay media RPMI A; for MIC Ec 25922 + FBS: 50% heat-inactivated FBS
[9] = system: Acinetobacter baumannii ATCC 17978; settings: assay media RPMI A
Description: as §1, §2

[10] = system: Pseudomonas aeruginosa ATCC 27853; settings: assay media RPMI A
Description: as §1, §2

B1: Conjugate 4 (conjugate)
chain: PRGPTIKPCPPCKCPAPNLLGGPSVFIFPPKIKDVLMISLSPIVTCVVVDVSEDDPDVQISWFVNNVEVHTAQTQTHREDYNSTLRVVSALPIQHQDWMSGKEFKCKVNNKDLPAPIERTISKPKGSVRAPQVYVLPPPEEEMTKKQVTLTCMVTDFMPEDIYVEWTNNGKTELNYKNTEPVLDSDGSYFMYSKLRVEKKNWVERNSYSCSVVHEGLHNHHTTKSFSRTPGKHHHHHH
modifications: cyclised or stapled
MIC Ec BW (mcr-1) [1]: >128 µg/mL
MIC Ec BW 4X-12 (COL-R) [2]: >128 µg/mL
MIC Pa PAO1 [3]: 16 µg/mL
MIC Ab AB5075 [4]: 32 µg/mL
MIC Ab 19606 [5]: 32 µg/mL
MIC Ec 2469 [6]: >128 µg/mL
MIC Ec BW [7]: 32 µg/mL
MIC Ec BW + FBS [7]: 32 µg/mL
MIC Ec 25922 [8]: >128 µg/mL
MIC Ec 25922 + FBS [8]: 64 µg/mL

B2: Conjugate 15 (conjugate)
chain: PRGPTIKPCPPCKCPAPNLLGGPSVFIFPPKIKDVLMISLSPIVTCVVVDVSEDDPDVQISWFVNNVEVHTAQTQTHREDYNSTLRVVSALPIQHQDWMSGKEFKCKVNNKDLPAPIERTISKPKGSVRAPQVYVLPPPEEEMTKKQVTLTCMVTDFMPEDIYVEWTNNGKTELNYKNTEPVLDSDGSYFMYSKLRVEKKNWVERNSYSCSVVHEGLHNHHTTKSFSRTPGKHHHHHH
modifications: cyclised or stapled
MIC Ec BW (mcr-1) [1]: >128 µg/mL
MIC Ec BW 4X-12 (COL-R) [2]: >128 µg/mL
MIC Pa PAO1 [3]: 16 µg/mL
MIC Ab AB5075 [4]: >128 µg/mL
MIC Ab 19606 [5]: >128 µg/mL
MIC Ec 2469 [6]: >128 µg/mL
MIC Ec BW [7]: >128 µg/mL
MIC Ec BW + FBS [7]: >128 µg/mL
MIC Ec 25922 [8]: >128 µg/mL
MIC Ec 25922 + FBS [8]: >128 µg/mL

B3: Conjugate 26: "Conjugate of m-IgG2a(His)6 Fc-3 (Int-13)"; SEQ ID NO: 6, procedure uses Int-10, DAR=2/Fc dimer (conjugate)
chain: PRGPTIKPCPPCKCPAPNLLGGPSVFIFPPKIKDVLMISLSPIVTCVVVDVSEDDPDVQISWFVNNVEVHTAQTQTHREDYNSTLRVVSALPIQHQDWMSGKEFKCKVNNKDLPAPIERTISKPKGSVRAPQVYVLPPPEEEMTKKQVTLTCMVTDFMPEDIYVEWTNNGKTELNYKNTEPVLDSDGSYFMYSKLRVEKKNWVERNSYSCSVVHEGLHNHHTTKSFSRTPGKHHHHHH
modifications: conjugated small molecule Int-13, DAR 2
MIC Ec BW (mcr-1) [1]: >128 µg/mL
MIC Ab 17978 [9]: 64 µg/mL
MIC Ec BW 4X-12 (COL-R) [2]: >128 µg/mL
MIC Pa 27853 [10]: 16 µg/mL
MIC Pa PAO1 [3]: 64 µg/mL
MIC Ab AB5075 [4]: 32 µg/mL
MIC Ab 19606 [5]: 128 µg/mL
MIC Ec 2469 [6]: 32 µg/mL
MIC Ec BW [7]: 16 µg/mL
MIC Ec BW + FBS [7]: 32 µg/mL
MIC Ec 25922 [8]: >128 µg/mL
MIC Ec 25922 + FBS [8]: 128 µg/mL
